Assay results reported in the supplement of paper PMC9112550, “Optimization of the antimicrobial peptide Bac7 by deep mutational scanning” (BMC Biology, 2022).

tested on: Escherichia coli TOP10; experiment: shrunken log2 fold change of peptide-encoding DNA abundance (4.5 h post-induction vs induction); higher = less antimicrobial activity (less host growth inhibition); details: time post-induction: 4.5 h; library: site-saturation at positions 5, 18, 19, 20
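Note: peptides expressed intracellularly from a pBAD plasmid library in pooled LB shake-flask culture, induced with 0.3% L-arabinose, DNA abundance read by NGS, three biological replicates, DESeq2 with apeglm shrinkage.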

Sequence	shrunken log2 fold change
RRIRNRPPRLPRPRPRPMTIPRP	-0.35
RRIRDRPPRLPRPRPRPDTSPRP	-0.114
RRIRARPPRLPRPRPRPYLEPRP	0.982
RRIRNRPPRLPRPRPRPKIQPRP	-0.367
RRIRYRPPRLPRPRPRPYCAPRP	-0.899
RRIRHRPPRLPRPRPRPQEHPRP	-0.389
RRIRVRPPRLPRPRPRPPQTPRP	0.0537
RRIRDRPPRLPRPRPRPCARPRP	0.219
RRIRTRPPRLPRPRPRPEGYPRP	-0.104
RRIRDRPPRLPRPRPRPNMHPRP	1.35
RRIRHRPPRLPRPRPRPQNIPRP	-0.269
RRIRDRPPRLPRPRPRPFVTPRP	-0.0344
RRIRPRPPRLPRPRPRPVFVPRP	0.0959
RRIRDRPPRLPRPRPRPMGTPRP	-0.106
RRIRCRPPRLPRPRPRPHRLPRP	-0.227
RRIRPRPPRLPRPRPRPRGTPRP	0.0776
RRIRIRPPRLPRPRPRPIMNPRP	-1.27
RRIRCRPPRLPRPRPRPFTRPRP	-0.291
RRIRHRPPRLPRPRPRPTQEPRP	-0.0394
RRIRLRPPRLPRPRPRPFFEPRP	0.058
RRIRLRPPRLPRPRPRPQTFPRP	-0.118
RRIRYRPPRLPRPRPRPYKGPRP	-0.721
RRIRSRPPRLPRPRPRPKYFPRP	-0.146
RRIRIRPPRLPRPRPRPLDHPRP	-0.333
RRIRSRPPRLPRPRPRPAFCPRP	0.259

Sequence	shrunken log2 fold change
RRIRGRPPRLPRPRPRPYRPPRP	-0.186
RRIRWRPPRLPRPRPRPRLYPRP	0.245
RRIRRRPPRLPRPRPRPIGMPRP	-0.0232
RRIRGRPPRLPRPRPRPQMWPRP	0.891
RRIRDRPPRLPRPRPRPCLEPRP	0.103
RRIRSRPPRLPRPRPRPSWRPRP	0.0852
RRIRWRPPRLPRPRPRPCARPRP	0.0277
RRIRVRPPRLPRPRPRPYHDPRP	-0.182
RRIRSRPPRLPRPRPRPDNKPRP	-0.256
RRIRSRPPRLPRPRPRPCTNPRP	-0.256
RRIRSRPPRLPRPRPRPKQTPRP	-0.159
RRIRLRPPRLPRPRPRPTGPPRP	0.298
RRIRFRPPRLPRPRPRPGKSPRP	0.0865
RRIRHRPPRLPRPRPRPQMIPRP	-0.139
RRIRVRPPRLPRPRPRPKNHPRP	-0.18
RRIRPRPPRLPRPRPRPKTVPRP	-0.171
RRIRGRPPRLPRPRPRPATIPRP	0.138
RRIRTRPPRLPRPRPRPTKIPRP	-0.169
RRIRGRPPRLPRPRPRPMLCPRP	0.558
RRIRLRPPRLPRPRPRPVDLPRP	-0.418
RRIRRRPPRLPRPRPRPKRNPRP	0.525
RRIRTRPPRLPRPRPRPNHQPRP	-0.35
RRIRCRPPRLPRPRPRPPWSPRP	0.175
RRIRDRPPRLPRPRPRPNNQPRP	-0.513
RRIRNRPPRLPRPRPRPSCSPRP	-0.384

Sequence	shrunken log2 fold change
RRIRYRPPRLPRPRPRPLNAPRP	-0.859
RRIRGRPPRLPRPRPRPWPYPRP	-0.265
RRIRERPPRLPRPRPRPDQPPRP	0.0454
RRIRYRPPRLPRPRPRPEMLPRP	-0.0664
RRIRYRPPRLPRPRPRPDWLPRP	-0.0748
RRIRGRPPRLPRPRPRPVWAPRP	0.591
RRIRDRPPRLPRPRPRPVREPRP	0.929
RRIRNRPPRLPRPRPRPKCSPRP	0.0607
RRIRPRPPRLPRPRPRPICWPRP	0.0407
RRIRYRPPRLPRPRPRPQRPPRP	0.376
RRIRERPPRLPRPRPRPRQLPRP	-0.0334
RRIRGRPPRLPRPRPRPFAGPRP	0.00108
RRIRFRPPRLPRPRPRPLRIPRP	0.00235
RRIRNRPPRLPRPRPRPTRAPRP	0.683
RRIRWRPPRLPRPRPRPHLFPRP	0.0795
RRIRLRPPRLPRPRPRPISDPRP	-0.014
RRIRHRPPRLPRPRPRPWVPPRP	-0.408
RRIRYRPPRLPRPRPRPGEEPRP	0.0322
RRIRVRPPRLPRPRPRPLDSPRP	-0.19
RRIRRRPPRLPRPRPRPCMTPRP	0.409
RRIRNRPPRLPRPRPRPVAPPRP	0.153
RRIRYRPPRLPRPRPRPMICPRP	-0.0731
RRIRDRPPRLPRPRPRPKKWPRP	-0.0255
RRIRSRPPRLPRPRPRPTQFPRP	0.212
RRIRPRPPRLPRPRPRPMIGPRP	0.00964
